Measurements published in article PMC12432413.

Target: CP* (calprotectin, S100A8 C42S / S100A9 C3S heterodimer) (UniProt P05109)
Assay: crystal structure; Ca2+-loaded CP* with 0.7 equivalents of Zn2+; 20 mM Tris pH 7.5, 100 mM NaCl, 2 mM MgCl2; hanging drop, 20°C, 1.0M sodium citrate (pH 5.2), 28% MPD; 1.87 Å

For “CP* (calprotectin, S100A8 C42S / S100A9 C3S heterodimer) (from UniProt P05109 1-87; P06702 5-112) (complex)”, which stoichiometry N is on record?
The stoichiometry N was 2.
